Assay results reported in patent publication US20220195455A1, “DELIVERY OF CRISPR/MCAS9 THROUGH EXTRACELLULAR VESICLES FOR GENOME EDITING” (University of Georgia Research Foundation, Inc., priority 2019, published 2022).

Tests used:
Assay in all cases: NMT1 activity assay (CoA release, fluorescence);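 also: released CoA from NMT1-catalysed myristoylation of octapeptide substrates detected by fluorescence after reaction with a maleimide coumarin dye (excitation 390 nm, emission 479 nm), triplicate points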
Format in all cases: biochemical
Settings in all cases: other: octapeptide as NMT1 substrate; full length NMT1
[1] = substrate: CC(C)C[C@H](NC(=O)CN)C(=O)N[C@@H](CC(C)C)C(=O)N[C@@H](CC(=O)O)C(=O)N[C@@H](CCCNC(=N)N)C(=O)N[C@@H](CC(C)C)C(=O)N[C@@H](CO)C(=O)N[C@H](C(=O)O)C(C)C
Method: (§1) The amount of the released CoA were reacted with 7-diethylamino-3-(4′-maleimidylphenyl)-4-methylcoumarin. The assay was performed in 96-well black microplates. The produced fluorescence intensity was measured by Flex Station 3, and detected by microplate reader (excitation at 390 nm; emission at 479 nm).
(§2) The amount of the released CoA were reacted with 7-diethylamino-3-(4′-maleimidylphenyl)-4-methylcoumarin. The assay was performed in 96-well black microplates. The produced fluorescence intensity was measured by Flex Station 3, and detected by microplate reader (excitation at 390 nm; emission at 479 nm). To measure the Km and Vmax of NMT1 which catalyzed various octapeptides substrates derived from various proteins, twenty-five octapeptides were synthesized by GenScript. […] Each data point has three repeats.
(§3) Km and Vmax catalyzed by full length NMT1 protein were calculated.

[2] = substrate: CC(C)C[C@H](NC(=O)CNC(=O)CN)C(=O)N[C@@H](Cc1ccccc1)C(=O)N[C@@H](CO)C(=O)N[C@@H](CCCNC(=N)N)C(=O)N[C@@H](Cc1c[nH]c2ccccc12)C(=O)N[C@@H](CCCNC(=N)N)C(=O)O
Method: as §1, §2, §3

[3] = substrate: CC(C)C[C@H](NC(=O)[C@H](C)NC(=O)[C@H](CO)NC(=O)[C@H](CC(N)=O)NC(=O)[C@H](CCC(=O)O)NC(=O)[C@H](CO)NC(=O)CN)C(=O)N[C@@H](CCCCN)C(=O)O
Method: as §1, §2, §3

[4] = substrate: CC(C)C[C@H](NC(=O)[C@H](CCC(N)=O)NC(=O)[C@H](CCC(N)=O)NC(=O)[C@H](CO)NC(=O)[C@H](C)NC(=O)[C@H](CCCCN)NC(=O)[C@H](CCC(N)=O)NC(=O)CN)C(=O)O
Method: as §1, §2, §3

[5] = substrate: CC(C)C[C@H](NC(=O)[C@H](CS)NC(=O)[C@H](CC(N)=O)NC(=O)CN)C(=O)N[C@@H](CCCCN)C(=O)N[C@@H](CO)C(=O)N1CCC[C@H]1C(=O)N[C@H](C(=O)O)[C@@H](C)O
Method: as §1, §2, §3

[6] = substrate: CC(C)C[C@H](NC(=O)[C@H](Cc1c[nH]cn1)NC(=O)[C@H](C)NC(=O)CN)C(=O)N[C@H](C(=O)N[C@@H](CCCNC(=N)N)C(=O)N[C@@H](CCCNC(=N)N)C(=O)N[C@@H](Cc1ccc(O)cc1)C(=O)O)C(C)C
Method: as §1, §2, §3

[7] = substrate: CC(C)[C@H](NC(=O)[C@H](CCCNC(=N)N)NC(=O)[C@H](CO)NC(=O)CN)C(=O)N[C@@H](CO)C(=O)N[C@@H](CCCNC(=N)N)C(=O)N[C@@H](CCC(=O)O)C(=O)N[C@@H](CC(=O)O)C(=O)O
Method: as §1, §2, §3

[8] = substrate: CC(C)[C@H](NC(=O)[C@H](CS)NC(=O)CN)C(=O)N[C@@H](CCC(N)=O)C(=O)N[C@@H](CS)C(=O)N[C@@H](CCCCN)C(=O)N[C@@H](CC(=O)O)C(=O)N[C@@H](CCCCN)C(=O)O
Method: as §1, §2, §3

[9] = substrate: CC[C@H](C)[C@H](NC(=O)CNC(=O)[C@H](CCCNC(=N)N)NC(=O)[C@@H](NC(=O)[C@@H](NC(=O)[C@H](CC(C)C)NC(=O)[C@H](C)NC(=O)CN)C(C)C)[C@@H](C)CC)C(=O)O
Method: as §1, §2, §3

[10] = substrate: CC[C@H](C)[C@H](NC(=O)[C@@H](NC(=O)[C@H](CC(C)C)NC(=O)[C@H](CC(C)C)NC(=O)CN)[C@@H](C)O)C(=O)N[C@@H](CC(C)C)C(=O)N[C@@H](CCCCN)C(=O)N[C@@H](CCCCN)C(=O)O
Method: as §1, §2, §3

[11] = substrate: CC[C@H](C)[C@H](NC(=O)[C@H](CCCCN)NC(=O)[C@H](CO)NC(=O)[C@H](CC(C)C)NC(=O)[C@@H](NC(=O)[C@H](CCCCN)NC(=O)CN)C(C)C)C(=O)N[C@@H](Cc1ccccc1)C(=O)O
Method: as §1, §2, §3

[12] = substrate: CC[C@H](C)[C@H](NC(=O)[C@H](CS)NC(=O)CN)C(=O)N[C@@H](CCCCN)C(=O)N[C@@H](CO)C(=O)N[C@@H](CCCCN)C(=O)NCC(=O)N[C@@H](CCCCN)C(=O)O
Method: as §1, §2, §3

[13] = substrate: CC[C@H](C)[C@H](NC(=O)[C@H](CS)NC(=O)CN)C(=O)N[C@@H](CCCCN)C(=O)N[C@@H](CO)C(=O)N[C@@H](CCCCN)C(=O)N[C@@H](CCC(=O)O)C(=O)N[C@@H](CC(N)=O)C(=O)O
Method: as §1, §2, §3

[14] = substrate: CSCC[C@H](NC(=O)[C@@H](NC(=O)[C@H](CCC(=O)O)NC(=O)CN)[C@@H](C)O)C(=O)N[C@@H](CO)C(=O)N[C@@H](CCCCN)C(=O)N[C@@H](CCCNC(=N)N)C(=O)N[C@@H](CC(C)C)C(=O)O
Method: as §1, §2, §3

[15] = substrate: C[C@H](N)C(=O)N[C@@H](CO)C(=O)N[C@@H](CC(N)=O)C(=O)N[C@@H](CCCCN)C(=O)N[C@@H](CO)C(=O)N[C@@H](CCCCN)C(=O)N1CCC[C@H]1C(=O)N[C@@H](CCCCN)C(=O)O
Method: as §1, §2, §3

[16] = substrate: C[C@H](NC(=O)[C@@H](NC(=O)[C@H](CCCCN)NC(=O)[C@H](CO)NC(=O)[C@H](Cc1ccccc1)NC(=O)[C@H](CCC(N)=O)NC(=O)[C@H](C)NC(=O)CN)[C@@H](C)O)C(=O)O
Method: as §1, §2, §3

[17] = substrate: C[C@H](NC(=O)[C@@H]1CCCN1C(=O)CNC(=O)[C@H](CO)NC(=O)[C@H](CCC(N)=O)NC(=O)[C@H](CCCCN)NC(=O)[C@H](C)NC(=O)CN)C(=O)O
Method: as §1, §2, §3

[18] = substrate: C[C@H](NC(=O)[C@H](CC(N)=O)NC(=O)CN)C(=O)N[C@@H](CCC(N)=O)C(=O)N[C@@H](CCC(=O)O)C(=O)N[C@@H](CCCNC(=N)N)C(=O)N1CCC[C@H]1C(=O)N[C@@H](CO)C(=O)O
Method: as §1, §2, §3

[19] = substrate: C[C@H](NC(=O)[C@H](CCCCN)NC(=O)[C@H](CO)NC(=O)[C@H](CO)NC(=O)[C@H](CCC(N)=O)NC(=O)[C@H](CO)NC(=O)CN)C(=O)N1CCC[C@H]1C(=O)O
Method: as §1, §2, §3

[20] = substrate: C[C@H](NC(=O)[C@H](CCCCN)NC(=O)[C@H](CO)NC(=O)[C@H](CO)NC(=O)[C@H](CCCCN)NC(=O)[C@H](CCCNC(=N)N)NC(=O)CN)C(=O)N[C@@H](CCCCN)C(=O)O
Method: as §1, §2, §3

[21] = substrate: N=C(N)NCCC[C@H](NC(=O)[C@H](CCCNC(=N)N)NC(=O)[C@H](CCCCN)NC(=O)[C@H](CO)NC(=O)[C@H](Cc1ccccc1)NC(=O)[C@H](Cc1ccccc1)NC(=O)[C@H](CS)NC(=O)CN)C(=O)O
Method: as §1, §2, §3

[22] = substrate: N=C(N)NCCC[C@H](NC(=O)[C@H](CS)NC(=O)CN)C(=O)N[C@@H](CCC(N)=O)C(=O)N[C@@H](CO)C(=O)N[C@@H](CO)C(=O)N[C@@H](CCC(=O)O)C(=O)N[C@@H](CCC(=O)O)C(=O)O
Method: as §1, §2, §3

[23] = substrate: N=C(N)NCCC[C@H](NC(=O)[C@H](Cc1ccc(O)cc1)NC(=O)[C@H](Cc1c[nH]cn1)NC(=O)[C@H](CCCNC(=N)N)NC(=O)[C@H](CO)NC(=O)[C@H](CCC(=O)O)NC(=O)[C@H](CCCNC(=N)N)NC(=O)CN)C(=O)O
Method: as §1, §2, §3

[24] = substrate: NCCCC[C@H](NC(=O)[C@@H]1CCCN1C(=O)[C@H](CCCCN)NC(=O)[C@H](CO)NC(=O)[C@H](CCCCN)NC(=O)[C@H](CC(N)=O)NC(=O)[C@H](CO)NC(=O)CN)C(=O)O
Method: as §1, §2, §3

B1: full length NMT1 protein (Homo sapiens) (protein)
chain: MADESETAVKPPAPPLPQMMEGNGNGHEHCSDCENEEDNSYNRGGLSPANDTGAKKKKKKQKKKKEKGSETDSAQDQPVKMNSLPAERIQEIQKAIELFSVGQGPAKTMEEASKRSYQFWDTQPVPKLGEVVNTHGPVEPDKDNIRQEPYTLPQGFTWDALDLGDRGVLKELYTLLNENYVEDDDNMFRFDYSPEFLLWALRPPGWLPQWHCGVRVVSSRKLVGFISAIPANIHIYDTEKKMVEINFLCVHKKLRSKRVAPVLIREITRRVHLEGIFQAVYTAGVVLPKPVGTCRYWHRSLNPRKLIEVKFSHLSRNMTMQRTMKLYRLPETPKTAGLRPMETKDIPVVHQLLTRYLKQFHLTPVMSQEEVEHWFYPQENIIDTFVVENANGEVTDFLSFYTLPSTIMNHPTHKSLKAAYSFYNVHTQTPLLDLMSDALVLAKMKGFDVFNALDLMENKTFLEKLKFGIGDGNLQYYLYNWKCPSMGAEKVGLVLQ
notes: Km and Vmax catalyzed by full length NMT1 protein were calculated
Vmax [1]: 1.8 µM/min
Km [2]: 10.3 µM
Vmax [2]: 21.9 µM/min
Km [3]: 0.8 µM
Vmax [3]: 1.7 µM/min
Km [4]: 15.7 µM
Vmax [4]: 3.4 µM/min
Km [5]: 16.7 µM
Vmax [5]: 61.1 µM/min
Km [6]: 16.4 µM
Vmax [6]: 2.8 µM/min
Km [7]: 79.2 µM
Vmax [7]: 12.9 µM/min
Km [8]: 5.2 µM
Vmax [8]: 54.9 µM/min
Km [9]: 0.5 µM
Vmax [9]: 1.2 µM/min
Km [10]: 0.4 µM
Vmax [10]: 1.2 µM/min
Km [11]: 4.4 µM
Vmax [11]: 13.6 µM/min
Km [12]: 22.5 µM
Vmax [12]: 64.7 µM/min
Km [13]: 14.4 µM
Vmax [13]: 61 µM/min
Km [14]: 13.0 µM
Vmax [14]: 5.3 µM/min
Vmax [15]: 1 µM/min
Km [16]: 38.4 µM
Vmax [16]: 6.4 µM/min
Km [17]: 2.0 µM
Vmax [17]: 1.6 µM/min
Km [18]: 1.4 µM
Vmax [18]: 2 µM/min
Km [19]: 11.7 µM
Vmax [19]: 6.6 µM/min
Km [20]: 1.2 µM
Vmax [20]: 1.8 µM/min
Km [21]: 13.6 µM
Vmax [21]: 60.8 µM/min
Km [22]: 15.7 µM
Vmax [22]: 64.4 µM/min
Vmax [23]: 2 µM/min
Km [24]: 14.3 µM
Vmax [24]: 25.8 µM/min
